The values below come from the Immune Epitope Database (IEDB).

Assay [1] concerns the target HLA-C*04:01. Put plainly: IEDB peptide-MHC binding, purified MHC/direct/fluorescence; filed as Kd, often an IC50 or EC50 that approximates it; ≥ and ≤ were set here for values at or beyond the usual limits of such assays.
Assay [2] deals with HLA-A*24:03. The assay is described as above. As to conditions: source organism: Bacillus anthracis.
Assay [3] concerns the target HLA-A*80:01. The description is as above.
For assay [4], the target named is HLA-B*15:42. As to the kind of experiment: IEDB peptide-MHC binding, purified MHC/competitive/fluorescence; filed as Kd, often an IC50 or EC50 that approximates it; ≥ and ≤ were set here for values at or beyond the usual limits of such assays.
The target in assay [5] is HLA-B*39:01. The assay is described as above.
In assay [6] the target is HLA-A*02:01. The description is as above.
Assay [7] deals with HLA-B*27:05. The assay is described as above.
Assay [8] deals with HLA-A*31:01. The assay is described as above.
Assay [9] deals with HLA-B*83:01. Described as above.
Assay [10] has as its target HLA-A*32:07. The description is as above.
In assay [11] the target is HLA-B*27:20. The assay is described as above.
In assay [12] the target is HLA-A*03:19. Described as above.
The target of assay [13] is HLA-B*45:06. The description is as above.
The target in assay [14] is HLA-C*06:02. As to the kind of experiment: IEDB peptide-MHC binding, purified MHC/direct/fluorescence; filed as Kd, often an IC50 or EC50 that approximates it; ≥ and ≤ were set here for values at or beyond the usual limits of such assays.
In assay [15] the target is HLA-C*14:02. Described as above.
Assay [16] addresses HLA-C*15:02. The description is as above.
Assay [17] addresses HLA-C*05:01. Described as above.
In assay [18] the target is HLA-C*06:02. As to the kind of experiment: IEDB peptide-MHC binding, purified MHC/competitive/fluorescence; filed as Kd, often an IC50 or EC50 that approximates it; ≥ and ≤ were set here for values at or beyond the usual limits of such assays.
The target of assay [19] is HLA-A*68:23. The assay is described as above.
Assay [20] addresses HLA-A*32:15. The assay is described as above.
The target of assay [21] is HLA-B*46:01. Described as above. As to conditions: source organism: Vibrio cholerae MAK 757.
For assay [22], the target named is HLA-C*12:03. As to the kind of experiment: IEDB peptide-MHC binding, purified MHC/direct/fluorescence; filed as Kd, often an IC50 or EC50 that approximates it; ≥ and ≤ were set here for values at or beyond the usual limits of such assays.
Assay [23] deals with HLA-C*03:03. The description is as above.
For assay [24], the target named is HLA-B*40:13. As to the kind of experiment: IEDB peptide-MHC binding, purified MHC/competitive/fluorescence; filed as Kd, often an IC50 or EC50 that approximates it; ≥ and ≤ were set here for values at or beyond the usual limits of such assays.
Assay [25] has as its target HLA-A*02:06. The assay is described as above. As to conditions: source organism: Brucella suis 1330.
In assay [26] the target is HLA-B*58:01. The assay is described as above.
In assay [27] the target is HLA-C*14:02. The assay is described as above.
Assay [28] deals with HLA-C*08:02. Put plainly: IEDB peptide-MHC binding, purified MHC/direct/fluorescence; filed as Kd, often an IC50 or EC50 that approximates it; ≥ and ≤ were set here for values at or beyond the usual limits of such assays. As to conditions: source organism: Yersinia pestis CO92.
In assay [29] the target is HLA-C*07:02. The assay is described as above.
For assay [30], the target named is HLA-A*01:01. Described as above.
Assay [31] deals with HLA-B*35:01. Put plainly: IEDB peptide-MHC binding, purified MHC/competitive/fluorescence; filed as Kd, often an IC50 or EC50 that approximates it; ≥ and ≤ were set here for values at or beyond the usual limits of such assays. As to conditions: source organism: Yersinia pestis Nepal516.
Assay [32] addresses HLA-A*26:01. The assay is described as above. As to conditions: source organism: Yersinia pestis Nepal516.
Where [33] appears, read: source organism: Yersinia pestis Nepal516.
Setting [34] is: source organism: Vibrio cholerae MAK 757.
Where [35] appears, read: source organism: Brucella suis 1330.
Setting [36] is: source organism: Yersinia pestis CO92.
[37] abbreviates: source organism: Camelpox virus M-96.
Setting [38] is: source organism: Escherichia coli O157:H7 str. EDL933.
[39] abbreviates: source organism: Mammarenavirus lassaense.
Setting [40] is: source organism: Mycobacterium tuberculosis F11.
Where [41] appears, read: source organism: Vaccinia virus.

By Kd is commonly meant the free concentration of one partner at which half of the binding sites on the other are occupied at equilibrium, for simple one-to-one binding. Low readings indicate higher affinity, high ones lower affinity. As to AYPKWKFFL, the values for the Kd in [1] (source organism: Bacillus anthracis str. CDC 684) and in assay [2] were at least 20000 nM and 1.7 nM, respectively.
In [3] (source organism: Yellow fever virus), NRDGDSYYY returned a Kd of 478 nM.
For the sequence RAMRMVYYL, the Kd in assay [4] (setting [33]) is at least 5000 nM; in assay [5] (setting [33]), 421 nM; in [6] (setting [33]), 0.8 nM; in [7] (setting [33]), 157 nM; in assay [8] (setting [33]), 4 nM; in assay [9] (setting [33]), at least 5000 nM. In addition, the Kd in assay [10] (setting [33]) was 77.6 nM; in assay [11] (setting [33]), 14 nM; in [12] (setting [33]), 206 nM; in assay [13] (setting [33]), at least 5000 nM; in assay [14] (setting [33]), 798 nM; in [15] (setting [33]), 960 nM. The figures for the Kd in assay [16] (setting [33]) and in [17] (setting [33]) were 34 nM and 124 nM, respectively.
Turning to SYCNGVREL, the Kd in assay [14] (source organism: SARS-CoV1) was 133 nM; in assay [1] (source organism: SARS-CoV1), at least 20000 nM.
Take GVPKTHLEL: the Kd was at least 5000 nM in assay [4] (source organism: Mus musculus); 1350 nM in assay [18] (source organism: Mus musculus); 23.1 nM in [19] (source organism: Mus musculus); at least 5000 nM in [9] (source organism: Mus musculus); 3230 nM in assay [12] (source organism: Mus musculus); at least 20000 nM in assay [20] (source organism: Mus musculus). The sequence also displayed a Kd in [13] (source organism: Mus musculus) of at least 5000 nM.
For IAAPNMIAV, the Kd in assay [21] is 578 nM; in assay [22] (setting [34]), 2 nM; in [23] (setting [34]) it was at most 1 nM; in [17] (setting [34]), 2170 nM.
As to RQNAPFEPI, the Kd in assay [4] (setting [35]) is at least 5000 nM; in assay [24] (setting [35]), 53.6 nM; in assay [6] (setting [35]), 83.4 nM; in assay [9] (setting [35]), at least 5000 nM; in [25], 1.2 nM; in assay [10] (setting [35]), 11.9 nM. Also, the dissociation constant (Kd) in assay [11] (setting [35]) is 1.1 nM; in assay [13] (setting [35]), at least 5000 nM.
For VSLGAISFW, the Kd in assay [26] (source organism: Influenza A virus (A/Leningrad/1954/1(H1N1))) is at most 1 nM.
In the case of YSFSRAYTL, the Kd in [4] (setting [36]) was at least 5000 nM; in [18] (setting [36]), 47.8 nM; in assay [5] (setting [36]), 3.9 nM; in assay [24] (setting [36]), 6.3 nM; in [19] (setting [36]), 9.3 nM; in [27] (setting [36]), 125 nM. In addition, the Kd is at least 5000 nM in assay [9] (setting [36]); 164 nM in [10] (setting [36]); 31.5 nM in assay [11] (setting [36]); 23.7 nM in assay [20] (setting [36]); at least 5000 nM in assay [13] (setting [36]); at least 20000 nM in [28]. Moreover, the Kd in assay [29] (setting [36]) is 347 nM; in assay [17] (setting [36]) it was at least 20000 nM.
MTDLSKKGY: the Kd is at least 20000 nM in [3] (setting [37]) and 2.8 nM in [30] (setting [37]).
On to MVLSGTLAY, for which the Kd in assay [4] (setting [33]) was at least 5000 nM; in [31], 1.2 nM; in [27] (setting [33]), 123 nM; in assay [9] (setting [33]), at least 5000 nM; in assay [32] it was 506 nM; in [13] (setting [33]), at least 5000 nM.
Consider RMMGVKYLM, for which the Kd in assay [4] (setting [38]) was at least 5000 nM; in assay [18] (setting [38]), 798 nM; in assay [5] (setting [38]), 2190 nM; in [24] (setting [38]) it was 3.2 nM; in [6] (setting [38]), 2 nM; in assay [8] (setting [38]), 2.1 nM. Moreover, the Kd in [9] (setting [38]) was at least 5000 nM; in [26] (setting [38]), 16.8 nM; in assay [10] (setting [38]) it was 1.1 nM; in assay [11] (setting [38]), 34 nM; in assay [12] (setting [38]), 886 nM; in assay [13] (setting [38]), at least 5000 nM. Further, the Kd in [15] (setting [38]) was 2340 nM; in assay [16] (setting [38]), 2080 nM; in assay [29] (setting [38]) it was 859 nM.
On to ALTDLGLIY, for which the Kd stood at 1.8 nM in assay [3] (setting [39]) and 34.7 nM in assay [30] (setting [39]).
The sequence RLDPRLAPV yielded a Kd in assay [23] (source organism: Mycobacterium tuberculosis variant bovis BCG str. Pasteur 1173P2) of at least 20000 nM.
GKVERMVQY registered a dissociation constant Kd in [7] (source organism: Escherichia coli 536) of at least 20000 nM.
For the sequence FVAATGRPL, the Kd is at least 5000 nM in assay [4] (setting [40]); 30.2 nM in assay [27] (setting [40]); at least 5000 nM in [13] (setting [40]); 95 nM in assay [22] (setting [40]); at most 1 nM in [23] (setting [40]).
With FVDVIIIKV, the equilibrium dissociation constant (Kd) in [17] (setting [41]) and in assay [1] (setting [41]) was at least 20000 nM throughout.
